From patent publication EP3196312B1, “EFFICIENT CONVERSION OF METHYLGLYOXAL INTO HYDROXYACETONE USING NOVEL ENZYMES AND APPLI CATIONS THEREOF” (Metabolic Explorer, priority 2016, dated 2017) come the findings set out here.

Common to all, as to assay: Methylglyoxal reductase kinetic parameters of purified enzyme (NAD(P)H consumption at 340 nm)
Substrate in data set [1]: CC(=O)C=O
The class given is biochemical, Klebsiella pneumoniae. To be noted: other: substrate methylglyoxal 0.1-40 mM, cofactor NADH, 50 mM Imidazole (pH7), 30°C, pH 7.0. On the procedure:
(§1) Except for the strain 18, the proteins were purified from the crude cell-extract by affinity on a Profinity column (BIORAD, Bio-Scale Mini Profinity exact cartridge 5 ml) according to the protocol recommended by the manufacturer. The crude extract was loaded on a 5 ml Profinity exact cartridge equilibrated with 100 mM potassium phosphate pH 7.6. The column was washed with 10 column volumes of the same buffer and incubated 30min with 100 mM potassium phosphate pH 7.6, 100 mM fluoride at room temperature. The protein was eluted from the column with 2 column volumes of 100 mM potassium phosphate pH 7.6. The tag remained tightly bound to the resin and the purified protein was released. The fractions containing the protein were pooled, concentrated and loaded on a gel filtration column (Superdex 200 10/300 GL column, GE Healthcare) equilibrated with different storage buffers (Table 3). Protein concentration was measured using the Bradford protein assay.
(§2) Methylglyoxal reductase activity (MGR) was determined by measuring the consumption of NAD(P)H at 340 nm on a spectrophotometer at 30°C (λ340 = 6290 M^-1 cm^-1). The reaction mixture (1mL) containing assay buffer and purified enzyme was incubated for 5 min at 30°C. Then, 0.1-40 mM methylglyoxal was added to start the reaction. […] Kinetic parameters were determined with Sigmaplot.

Substrate in data set [2]: CC(=O)C=O
The data set is classed as biochemical, Escherichia coli. The note with it: other: substrate methylglyoxal 0.1-40 mM, pH 7.5. On the procedure: as §1
Methylglyoxal reductase activity (MGR) was determined by measuring the consumption of NAD(P)H at 340 nm on a spectrophotometer at 30°C (λ340 = 6290 M^-1 cm^-1). The reaction mixture (1mL) containing assay buffer and purified enzyme was incubated for 5 min at 30°C. Then, 0.1-40 mM methylglyoxal was added to start the reaction. One unit of enzyme activity was defined as the amount of enzyme catalyzing the decrease of 1µmol of NAD(P)H per min. Kinetic parameters were determined with Sigmaplot.

Substrate in data set [3]: CC(=O)C=O
The class given is biochemical, Bacillus subtilis. To be noted: other: substrate methylglyoxal 0.1-40 mM, cofactor NADPH, 20mM Hepes (pH7.5) 0.1mM ZnSO4, 30°C, pH 7.5. On the procedure:
as §1, §2

Substrate in data set [4]: CC(=O)C=O
The data set is classed as biochemical, Dickeya zeae. The note with it: other: substrate methylglyoxal 0.1-40 mM, cofactor NADPH, 20mM Hepes (pH7.5), 30°C, pH 7.5. On the procedure:
as §1, §2

Substrate in data set [5]: CC(=O)C=O
The data set is classed as biochemical, Hypocrea jecorina. To be noted: other: substrate methylglyoxal 0.1-40 mM, cofactor NADPH, 10mM sodium phosphate (pH 7), 30°C. On the procedure:
as §1, §2

Substrate in data set [6]: CC(=O)C=O
The data set is classed as biochemical, Gluconobacter oxydans. The note with it: other: substrate methylglyoxal 0.1-40 mM, cofactor NADPH, 20mM Hepes (pH7.5), 30°C, pH 7.5. On the procedure: as §1, §2

Where [7] appears, read: cofactor NADPH, 20mM Hepes (pH7.5), 30°C.
The mark [8] stands for this setting: cofactor NADH, 20mM Hepes (pH7.5) 0.1mM FeSO4, 30°C.

B1: Klebsiella pneumoniae BudC (Diacetyl reductase [(S)-acetoin forming], Uniprot Q48436), SEQ ID NO: 113 (Klebsiella pneumoniae) (protein)
chain: MKKVALVTGAGQGIGKAIALRLVKDGFAVAIADYNDATAKAVASEINQAGGRAMAVKVDVSDRDQVFAAVEQARKTLGGFDVIVNNAGVAPSTPIESITPEIVDKVYNINVKGVIWGIQAAVEAFKKEGHGGKIINACSQAGHVGNPELAVYSSSKFAVRGLTQTAARDLAPLGITVNGYCPGIVKTPMWAEIDRQVSEAAGKPLGYGTAEFAKRITLGRLSEPEDVAACVSYLASPDSDYMTGQSLLIDGGMVFN
For the protein B1, in data set [1], the Km turned out to be 74800 µM and the kcat/Km stood at 4200 M⁻¹ s⁻¹.

B2: Escherichia coli YqhD (alcohol dehydrogenase, Uniprot Q46856), wild type, SEQ ID NO: 7 (Escherichia coli K-12) (protein)
chain: MNNFNLHTPTRILFGKGAIAGLREQIPHDARVLITYGGGSVKKTGVLDQVLDALKGMDVLEFGGIEPNPAYETLMNAVKLVREQKVTFLLAVGGGSVLDGTKFIAAAANYPENIDPWHILQTGGKEIKSAIPMGCVLTLPATGSESNAGAVISRKTTGDKQAFHSAHVQPVFAVLDPVYTYTLPPRQVANGVVDAFVHTVEQYVTKPVDAKIQDRFAEGILLTLIEDGPKALKEPENYDVRANVMWAATQALNGLIGAGVPQDWATHMLGHELTAMHGLDHAQTLAIVLPALWNEKRDTKRAKLLQYAERVWNITEGSDDERIDAAIAATRNFFEQLGVPTHLSDYGLDGSSIPALLKKLEEHGMTQLGENHDITLDVSRRIYEAAR
Regarding B2, the Km in data set [2] (cofactor NADPH, 20mM Hepes (pH7.5) 0.1mM ZnSO4, 30°C) came out at 2090 µM.

B3: Escherichia coli YdhF (Oxidoreductase YdhF, Uniprot P76187), SEQ ID NO: 105 (Escherichia coli K-12) (protein)
chain: MVQRITIAPQGPEFSRFVMGYWRLMDWNMSARQLVSFIEEHLDLGVTTVDHADIYGGYQCEAAFGEALKLAPHLRERMEIVSKCGIATTAREENVIGHYITDRDHIIKSAEQSLINLATDHLDLLLIHRPDPLMDADEVADAFKHLHQSGKVRHFGVSNFTPAQFALLQSRLPFTLATNQVEISPVHQPLLLDGTLDQLQQLRVRPMAWSCLGGGRLFNDDYFQPLRDELAVVAEELNAGSIEQVVYAWVLRLPSQPLPIIGSGKIERVRAAVEAETLKMTRQQWFRIRKAALGYDVP
On to B3, for which, in data set [2] (setting [7]), the Km was found to be 21800 µM and the kcat/Km stood at 350 M⁻¹ s⁻¹.

B4: Escherichia coli YiaY (Probable alcohol dehydrogenase, Uniprot P37686), SEQ ID NO: 111 (Escherichia coli K-12) (protein)
chain: MAASTFFIPSVNVIGADSLTDAMNMMADYGFTRTLIVTDNMLTKLGMAGDVQKALEERNIFSVIYDGTQPNPTTENVAAGLKLLKENNCDSVISLGGGSPHDCAKGIALVAANGGDIRDYEGVDRSAKPQLPMIAINTTAGTASEMTRFCIITDEARHIKMAIVDKHVTPLLSVNDSSLMIGMPKSLTAATGMDALTHAIEAYVSIAATPITDACALKAVTMIAENLPLAVEDGSNAKAREAMAYAQFLAGMAFNNASLGYVHAMAHQLGGFYNLPHGVCNAVLLPHVQVFNSKVAAARLRDCAAAMGVNVTGKNDAEGAEACINAIRELAKKVDIPAGLRDLNVKEEDFAVLATNALKDACGFTNPIQATHEEIVAIYRAAM
Consider B4, for which, in data set [2] (setting [8]), the Km is 2840 µM and the kcat/Km turned out to be 340 M⁻¹ s⁻¹.

B5: Escherichia coli YafB (2,5-diketo-D-gluconic acid reductase B, Uniprot P30863), SEQ ID NO: 99 (Escherichia coli K-12) (protein)
chain: MAIPAFGLGTFRLKDDVVISSVITALELGYRAIDTAQIYDNEAAVGQAIAESGVPRHELYITTKIWIENLSKDKLIPSLKESLQKLRTDYVDLTLIHWPSPNDEVSVEEFMQALLEAKKQGLTREIGISNFTIPLMEKAIAAVGAENIATNQIELSPYLQNRKVVAWAKQHGIHITSYMTLAYGKALKDEVIARIAAKHNATPAQVILAWAMGEGYSVIPSSTKRKNLESNLKAQNLQLDAEDKKAIAALDCNDRLVSPEGLAPEWD
As to B5, in data set [2] (setting [7]), the Km is 8200 µM and the kcat/Km stood at 2060 M⁻¹ s⁻¹.

B6: Bacillus subtilis YhdN (general stress protein 69, Uniprot P80874), SEQ ID NO: 3 (Bacillus subtilis subsp. subtilis str. 168) (protein)
chain: MEYTSIADTGIEASRIGLGTWAIGGTMWGGTDEKTSIETIRAALDQGITLIDTAPAYGFGQSEEIVGKAIKEYGKRDQVILATKTALDWKNNQLFRHANRARIVEEVENSLKRLQTDYIDLYQVHWPDPLVPIEETAEVMKELYDAGKIRAIGVSNFSIEQMDTFRAVAPLHTIQPPYNLFEREMEESVLPYAKDNKITTLLYGSLCRGLLTGKMTEEYTFEGDDLRNHDPKFQKPRFKEYLSAVNQLDKLAKTRYGKSVIHLAVRWILDQPGADIALWGARKPGQLEALSEITGWTLNSEDQKDINTILENTISDPVGPEFMAPPTREEI
B6: in data set [3], the Km came to 640 µM and the kcat/Km stood at 5920 M⁻¹ s⁻¹.

B7: Dickeya zeae Adh3.2 (Group III alcohol dehydrogenase, Uniprot R4Z7U3), SEQ ID NO: 103 (Dickeya zeae) (protein)
chain: MQNFTLHTPTKILFGEGQIAALADQIPADARILITYGGGSIKKNGVFDQVINALKGRNVVEFSGIEPNPTYETLMKAVEIVRKENIDFLLAVGGGSVADGTKFIAAAVNYKAAEDPWHILQTWGAHVESAIPLGVVLTLPATGSESNSGAVITRKSTGDKQAFMNPLVCPRFAVLDPVVTYTLPERQIANGVVDAFVHTVEQYLTYPVDAKVQDRFAEGLLLTLIEEGPRALKEQHNYNVRANVMWSATMALNGLIGAGVPQDWSTHMLGHEITAMHGLDHAQTLAIVLPAMLNERRVQKREKLLQYAERVWNLRDGSDDQRIDGAIAATRAFFEQMGVPTRLSDYQLDGSSIPALVAKLEEHGMTALGENKDITLDISKRVYEAAR
Regarding B7, in data set [4], the Km is 6700 µM and the kcat/Km was determined as 170 M⁻¹ s⁻¹.

B8: Escherichia coli YeaE (Uncharacterized protein YeaE, Uniprot P76234), SEQ ID NO: 107 (Escherichia coli K-12) (protein)
chain: MQQKMIQFSGDVSLPAVGQGTWYMGEDASQRKTEVAALRAGIELGLTLIDTAEMYADGGAEKVVGEALTGLREKVFLVSKVYPWNAGGQKAINACEASLRRLNTDYLDLYLLHWSGSFAFEETVAAMEKLIAQGKIRRWGVSNLDYADMQELWQLPGGNQCATNQVLYHLGSRGIEYDLLPWCQQQQMPVMAYSPLAQAGRLRNGLLKNAVVNEIAHAHNISAAQVLLAWVISHQGVMAIPKAATIAHVQQNAAVLEVELSSAELAMLDKAYPAPKGKTALDMV
Turning to B8, in data set [2] (setting [7]), the Km is 1590 µM and the kcat/Km was 910 M⁻¹ s⁻¹.

B9: Hypocrea jecorina Gld2 (Glycerol 2-dehydrogenase (NADP(+)), Uniprot Q0GYU4), SEQ ID NO: 109 (Trichoderma reesei) (protein)
chain: MASKTYTLNTGAKIPAVGFGTFANEGAKGETYAAVTKALDVGYRHLDCAWFYHNEDEVGDAVRDFLARRPDVKREDLFICTKVWNHLHEPEDVKWSAKNSCENLKVDYIDLFLVHWPIAAEKNSDRSVKLGPDGKYVINQALTENPEPTWRAMEELVESGLVKAIGVSNWTIPGLKKLLQIAKIKPAVNQIEIHPFLPNEELVAFCFENGILPEAYSPLGSQNQVPSTGERVRDNPTLKAVAERSGYSLAQILLAWGLKRGYVVLPKSSTPSRIESNFNIPELSDEDFEAIQQVAKGRHTRFVNMKDTFGYNVWPEEE
For the protein B9, in data set [5], the Km turned out to be 7700 µM and the kcat/Km stood at 11100 M⁻¹ s⁻¹.

B10: Gluconobacter oxydans Gld (putative oxidoreductase, Uniprot Q5FQJ0), SEQ ID NO: 5 (Gluconobacter oxydans 621H) (protein)
chain: MASDTIRIPGIDTPLSRVALGTWAIGGWMWGGPDDDNGVRTIHAALDEGINLIDTAPVYGFGHSEEIVGRALAEKPNKAHVATKLGLHWVGEDEKNMKVFRDSRPARIRKEVEDSLRRLRVETIDLEQIHWPDDKTPIDESARELQKLHQDGKIRALGVSNFSPEQMDIFREVAPLATIQPPLNLFERTIEKDILPYAEKHNAVVLAYGALCRGLLTGKMNRDTTFPKDDLRSNDPKFQKPNFEKYLAAMDEFEKLAEKRGKSVMAFAVRWVLDQGPVIALWGARKPGQVSGVKDVFGWSLTDEEKKAVDDILARHVPNPIDPTFMAPPARD
For B10, in data set [6], the Km stood at 1100 µM and the kcat/Km amounted to 8740 M⁻¹ s⁻¹.

B11: Escherichia coli YahK (aldehyde reductase, Uniprot P75691), SEQ ID NO: 1 (Escherichia coli K-12) (protein)
chain: MKIKAVGAYSAKQPLEPMDITRREPGPNDVKIEIAYCGVCHSDLHQVRSEWAGTVYPCVPGHEIVGRVVAVGDQVEKYAPGDLVGVGCIVDSCKHCEECEDGLENYCDHMTGTYNSPTPDEPGHTLGGYSQQIVVHERYVLRIRHPQEQLAAVAPLLCAGITTYSPLRHWQAGPGKKVGVVGIGGLGHMGIKLAHAMGAHVVAFTTSEAKREAAKALGADEVVNSRNADEMAAHLKSFDFILNTVAAPHNLDDFTTLLKRDGTMTLVGAPATPHKSPEVFNLIMKRRAIAGSMIGGIPETQEMLDFCAEHGIVADIEMIRADQINEAYERMLRGDVKYRFVIDNRTLTD
Turning to B11, in data set [2] (setting [7]), the Km is 1410 µM and the kcat/Km was 8300 M⁻¹ s⁻¹.

Broadly, the Km is the concentration of substrate that gives half-maximal velocity. As usually defined, the kcat/Km is the turnover number divided by the Michaelis constant.
